Results on 1 substance are retold here after publication PMC2572860.

This assay addresses apoMb samples (RNCs bearing apoMb nascent polypeptides of increasing length). In words: co-sedimentation.

Sequence of DnaK (P0A6Y8 whole entry): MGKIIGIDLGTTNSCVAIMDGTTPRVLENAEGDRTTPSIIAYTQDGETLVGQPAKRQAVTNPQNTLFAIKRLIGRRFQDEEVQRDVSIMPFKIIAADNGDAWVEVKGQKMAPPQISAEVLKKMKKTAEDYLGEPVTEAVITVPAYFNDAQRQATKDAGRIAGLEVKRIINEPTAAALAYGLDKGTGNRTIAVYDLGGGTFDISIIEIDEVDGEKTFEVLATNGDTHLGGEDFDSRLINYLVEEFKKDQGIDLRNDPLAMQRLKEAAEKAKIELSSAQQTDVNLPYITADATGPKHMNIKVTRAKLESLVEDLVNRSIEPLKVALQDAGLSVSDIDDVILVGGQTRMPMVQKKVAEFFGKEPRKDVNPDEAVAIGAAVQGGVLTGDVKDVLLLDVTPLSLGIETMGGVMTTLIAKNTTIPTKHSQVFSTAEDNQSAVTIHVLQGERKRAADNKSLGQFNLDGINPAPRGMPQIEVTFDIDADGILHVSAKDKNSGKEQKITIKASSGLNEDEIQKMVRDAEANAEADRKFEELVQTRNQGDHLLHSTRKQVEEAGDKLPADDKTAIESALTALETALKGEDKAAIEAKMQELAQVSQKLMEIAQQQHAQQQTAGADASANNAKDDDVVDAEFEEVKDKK

Take “DnaK (from UniProt P0A6Y8 1-638) (natural protein)”: the DnaK concentration in the resuspended RNC pellet was 20 to 65 nM.
